Common to all, as to test: SEC; analytical size exclusion, Superdex 200 Increase 10/300 GL, mobile phase 100 mM tricine, 100 mM NaCl, pH 7.5; masses from BioRad protein standards; self-association of each purified NnlA
Data set [1] addresses N-nitroglycine lyase A (NnlA) from Variovorax sp. strain JS1663 (Variovorax sp. strain JS1663).
In data set [2] the target is NnlA homolog from Mycobacterium sp. 1465703.0 (Mycobacterium sp. 1465703.0).
Data set [3] has as its target NnlA homolog from Pseudonocardia spinosispora DSM 44797 (Pseudonocardia spinosispora DSM 44797).
The target in data set [4] is NnlA homolog from Pseudovibrio denitrificans JCM 1230 (Pseudovibrio denitrificans JCM 1230).
Data set [5] concerns the molecule itself.

Consider “N-nitroglycine lyase A (NnlA) from Variovorax sp. strain JS1663 (enzyme)”, for which the stoichiometry N in data set [1] worked out at 2.
Molecule “NnlA homolog from Mycobacterium sp. 1465703.0 (enzyme)” had a stoichiometry N in data set [2] of 2.
Molecule “NnlA homolog from Pseudonocardia spinosispora DSM 44797 (enzyme)” returned a stoichiometry N in data set [3] of 2.
Turning to “NnlA homolog from Pseudovibrio denitrificans JCM 1230 (enzyme)”, the stoichiometry N in data set [4] was found to be 2.

B1: NnlA homolog from Microbispora rosea subsp. nonnitritogenes strain NRRL B-2631 (enzyme)
chain: MTSQAEPAEAAESRIATDWGLDEWADRLIDQAGVGVTILNRHGTVMYYNKWASEHLDRRPEYIGNDVRKRHRRAVTNPRLDAMLKLFEDGRVEPVRYVARPYGKTTILVTVSPIRVDGELVGFSQIVLLKDEVQELCARFDESGRESFEREMLPNGPPAT
For B1, the “stoichiometry N” value in data set [5] came out at 2.
